Values joined by “and” are separate entries in the source; they are usually repeats but may differ in a detail not shown here. Identical values can stand only once.
Assays:
[1] = target: T1, 562(P4-P3′)336 factor VIII mutant (procofactor)
T1 chain 1: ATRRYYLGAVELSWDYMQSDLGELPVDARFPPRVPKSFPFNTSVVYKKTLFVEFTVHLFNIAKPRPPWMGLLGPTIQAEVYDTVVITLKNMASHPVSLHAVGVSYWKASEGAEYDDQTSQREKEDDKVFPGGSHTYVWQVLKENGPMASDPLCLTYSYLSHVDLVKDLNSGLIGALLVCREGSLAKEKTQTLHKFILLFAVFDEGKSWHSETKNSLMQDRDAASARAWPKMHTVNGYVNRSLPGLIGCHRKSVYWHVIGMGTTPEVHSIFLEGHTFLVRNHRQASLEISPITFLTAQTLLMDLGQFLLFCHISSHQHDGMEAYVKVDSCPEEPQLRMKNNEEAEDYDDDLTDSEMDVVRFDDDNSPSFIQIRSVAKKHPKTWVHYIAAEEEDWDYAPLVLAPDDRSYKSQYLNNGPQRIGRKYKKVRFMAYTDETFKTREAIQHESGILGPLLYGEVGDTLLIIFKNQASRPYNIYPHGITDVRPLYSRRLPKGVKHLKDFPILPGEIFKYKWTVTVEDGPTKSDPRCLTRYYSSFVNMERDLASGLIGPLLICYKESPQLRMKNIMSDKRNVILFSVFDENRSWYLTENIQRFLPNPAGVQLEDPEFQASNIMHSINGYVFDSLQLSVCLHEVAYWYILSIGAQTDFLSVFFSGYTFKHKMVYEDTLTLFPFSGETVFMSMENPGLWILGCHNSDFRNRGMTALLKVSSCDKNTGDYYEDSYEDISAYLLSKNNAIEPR
T1 chain 2: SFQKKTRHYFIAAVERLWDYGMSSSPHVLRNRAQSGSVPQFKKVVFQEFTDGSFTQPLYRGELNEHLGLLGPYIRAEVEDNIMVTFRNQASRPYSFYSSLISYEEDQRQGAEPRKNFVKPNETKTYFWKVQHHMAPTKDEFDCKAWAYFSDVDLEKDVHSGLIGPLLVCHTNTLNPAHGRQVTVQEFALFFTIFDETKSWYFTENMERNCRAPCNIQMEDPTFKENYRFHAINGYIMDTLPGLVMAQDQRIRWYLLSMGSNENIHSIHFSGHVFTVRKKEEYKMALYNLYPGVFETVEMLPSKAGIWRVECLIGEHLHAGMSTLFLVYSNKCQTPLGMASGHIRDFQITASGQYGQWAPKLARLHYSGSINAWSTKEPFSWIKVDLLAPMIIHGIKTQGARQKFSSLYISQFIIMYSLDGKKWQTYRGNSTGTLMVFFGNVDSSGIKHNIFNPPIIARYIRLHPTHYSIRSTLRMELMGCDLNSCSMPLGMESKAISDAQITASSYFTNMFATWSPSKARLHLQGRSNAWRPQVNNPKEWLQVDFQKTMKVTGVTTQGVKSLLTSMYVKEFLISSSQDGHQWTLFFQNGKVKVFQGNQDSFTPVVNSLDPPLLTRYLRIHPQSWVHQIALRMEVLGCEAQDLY

[2] = target: T2, WT factor VIII (B-domainless recombinant human factor VIII procofactor)
T2 chain 1: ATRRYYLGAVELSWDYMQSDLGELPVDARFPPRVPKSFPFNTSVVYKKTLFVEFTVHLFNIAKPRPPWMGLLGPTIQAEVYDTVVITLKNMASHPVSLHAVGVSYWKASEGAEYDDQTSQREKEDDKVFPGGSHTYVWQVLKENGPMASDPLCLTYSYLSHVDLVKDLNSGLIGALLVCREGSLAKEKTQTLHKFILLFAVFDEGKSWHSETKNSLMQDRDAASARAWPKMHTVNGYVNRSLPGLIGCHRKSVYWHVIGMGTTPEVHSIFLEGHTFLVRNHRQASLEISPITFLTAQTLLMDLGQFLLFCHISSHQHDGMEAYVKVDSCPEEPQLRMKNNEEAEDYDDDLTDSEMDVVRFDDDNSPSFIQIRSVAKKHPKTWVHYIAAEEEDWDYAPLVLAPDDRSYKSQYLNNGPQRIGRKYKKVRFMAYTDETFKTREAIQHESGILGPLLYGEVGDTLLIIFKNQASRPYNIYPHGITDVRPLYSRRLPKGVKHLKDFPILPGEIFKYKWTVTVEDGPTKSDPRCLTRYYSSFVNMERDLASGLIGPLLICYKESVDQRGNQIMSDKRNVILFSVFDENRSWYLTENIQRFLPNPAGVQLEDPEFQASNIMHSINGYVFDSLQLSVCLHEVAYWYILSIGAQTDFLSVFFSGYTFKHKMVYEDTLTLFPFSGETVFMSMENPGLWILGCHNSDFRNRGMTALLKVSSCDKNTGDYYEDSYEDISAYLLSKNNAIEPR
T2 chain 2: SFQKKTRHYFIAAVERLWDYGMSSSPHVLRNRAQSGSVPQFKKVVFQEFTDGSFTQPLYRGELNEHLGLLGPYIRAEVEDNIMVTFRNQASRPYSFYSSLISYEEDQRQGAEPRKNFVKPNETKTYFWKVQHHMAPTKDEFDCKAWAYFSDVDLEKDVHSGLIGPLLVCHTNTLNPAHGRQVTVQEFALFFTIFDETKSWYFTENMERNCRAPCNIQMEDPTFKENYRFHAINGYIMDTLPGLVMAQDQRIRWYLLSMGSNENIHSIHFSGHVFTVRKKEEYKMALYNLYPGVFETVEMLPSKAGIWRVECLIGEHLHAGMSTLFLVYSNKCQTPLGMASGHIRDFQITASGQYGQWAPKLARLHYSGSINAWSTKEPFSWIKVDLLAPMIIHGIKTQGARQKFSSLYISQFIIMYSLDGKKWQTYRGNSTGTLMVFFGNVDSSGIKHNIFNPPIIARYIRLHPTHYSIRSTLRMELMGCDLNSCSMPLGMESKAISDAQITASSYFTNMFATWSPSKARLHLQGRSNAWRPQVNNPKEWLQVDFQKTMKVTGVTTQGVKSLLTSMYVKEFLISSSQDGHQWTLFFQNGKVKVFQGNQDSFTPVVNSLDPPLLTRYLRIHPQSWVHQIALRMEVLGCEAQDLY

[3] = target: T3, WT factor VIIIa (B-domainless recombinant human factor VIII activated by thrombin)
T3 chain 1: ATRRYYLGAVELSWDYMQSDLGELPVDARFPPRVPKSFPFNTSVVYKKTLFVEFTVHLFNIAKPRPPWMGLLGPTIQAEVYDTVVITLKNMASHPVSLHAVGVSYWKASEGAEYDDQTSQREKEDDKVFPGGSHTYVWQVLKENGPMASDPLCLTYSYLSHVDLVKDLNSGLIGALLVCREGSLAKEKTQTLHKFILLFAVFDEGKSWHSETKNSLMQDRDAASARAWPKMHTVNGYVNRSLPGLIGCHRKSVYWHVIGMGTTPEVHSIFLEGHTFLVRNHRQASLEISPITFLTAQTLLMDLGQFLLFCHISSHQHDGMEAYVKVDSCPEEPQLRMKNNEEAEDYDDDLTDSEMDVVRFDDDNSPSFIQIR
T3 chain 2: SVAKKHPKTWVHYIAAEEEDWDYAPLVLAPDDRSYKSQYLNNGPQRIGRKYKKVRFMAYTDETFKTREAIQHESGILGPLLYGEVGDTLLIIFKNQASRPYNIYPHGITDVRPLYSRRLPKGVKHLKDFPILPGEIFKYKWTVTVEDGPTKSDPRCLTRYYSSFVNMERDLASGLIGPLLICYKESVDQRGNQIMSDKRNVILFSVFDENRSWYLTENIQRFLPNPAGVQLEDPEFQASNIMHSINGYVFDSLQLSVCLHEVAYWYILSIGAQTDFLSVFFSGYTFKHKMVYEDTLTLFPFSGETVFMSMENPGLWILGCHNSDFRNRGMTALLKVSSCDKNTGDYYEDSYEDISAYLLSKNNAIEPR
T3 chain 3: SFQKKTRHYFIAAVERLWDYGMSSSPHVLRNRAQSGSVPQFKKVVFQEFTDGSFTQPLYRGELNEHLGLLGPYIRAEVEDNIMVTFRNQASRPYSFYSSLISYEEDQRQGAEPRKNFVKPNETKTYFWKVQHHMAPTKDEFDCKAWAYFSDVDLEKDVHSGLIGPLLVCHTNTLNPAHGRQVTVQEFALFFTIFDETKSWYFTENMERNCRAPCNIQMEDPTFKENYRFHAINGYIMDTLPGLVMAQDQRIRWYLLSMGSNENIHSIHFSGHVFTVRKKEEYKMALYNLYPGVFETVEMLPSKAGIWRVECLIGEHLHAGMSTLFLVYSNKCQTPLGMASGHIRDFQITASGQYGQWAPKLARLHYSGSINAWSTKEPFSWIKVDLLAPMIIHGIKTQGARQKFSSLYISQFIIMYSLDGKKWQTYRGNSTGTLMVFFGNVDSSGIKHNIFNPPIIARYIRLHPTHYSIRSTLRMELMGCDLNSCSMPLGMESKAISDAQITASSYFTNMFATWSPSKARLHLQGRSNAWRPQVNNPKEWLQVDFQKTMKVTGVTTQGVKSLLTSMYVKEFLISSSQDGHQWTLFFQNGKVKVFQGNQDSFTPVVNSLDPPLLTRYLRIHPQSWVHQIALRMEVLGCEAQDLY

B1: human activated protein C (protein)
chain 1: ANSFLEELRHSSLERECIEEICDFEEAKEIFQNVDDTLAFWSKHVDGDQCLVLPLEHPCASLCCGHGTCIDGIGSFSCDCRSGWEGRFCQREVSFLNCSLDNGGCTHYCLEEVGWRRCSCAPGYKLGDDLLQCHPAVKFPCGRPWKRMEKKRSHL
chain 2: LIDGKMTRRGDSPWQVVLLDSKKKLACGAVLIHPSWVLTAAHCMDESKKLLVRLGEYDLRRWEKWELDLDIKEVFVHPNYSKSTTDNDIALLHLAQPATLSQTIVPICLPDSGLAERELNQAGQETLVTGWGYHSSREKEAKRNRTFVLNFIKIPVVPHNECSEVMSNMVSENMLCAGILGDRQDACEGDSGGPMVASFHGTWFLVGLVSWGEGCGLLHNYGVYTKVSRYLDWIHGHIRDKEAPQKSWAP
[1]
  A2 Cleavage (nM A2/min/nM APC) (nM A2/min/nM APC): 2.7
[2]
  A2 Cleavage (nM A2/min/nM APC) (nM A2/min/nM APC): 0.1
[3]
  A1 Cleavage (nM A1/min/nM APC) (nM A1/min/nM APC): 8.5 and 9.5
  A2 Cleavage (nM A2/min/nM APC) (nM A2/min/nM APC): 0.5 and 0.2
